Experimental data as given in patent publication US20220112276A1 (Janssen / Centocor, published 2022).

Each binder was assayed against T1, recombinant human pIgR (hpIgR) (human, UniProt P01833 19-638, limits assumed) (assay: ELISA, periplasmic VHH, BSA subtracted).
T1 construct: probably the ECD
Method: Initial Library Screening: After each panning round showing enrichment, 94 individual clones were expressed and tested in an off-phage initial screen for specific binding to mpIgR or hpIgR (respectively depending on the antigen used). Screening of monoclones in an off-phage format was performed by transforming the phagemid pool into a non-amber-suppressor strain of E. coli and picking random colonies. The VHH proteins were recovered in the periplasmic fraction by performing osmotic shock. Periplasmic fractions containing His-tagged nanobodies were tested for binding to hpIgR or mpIgR. Bound nanobody was detected with a polyclonal anti-alpaca VHH domain antibody. Each clone was also tested for non-specific binding to BSA in parallel. The ELISA values obtained on BSA were subtracted from the ELISA values obtained on the respective pIgR antigen.
Repeat Testing of Positive Hits: The hits identified in the initial screen of the phage pools were re-tested for binding to either hpIgR or mpIgR. Periplasmic fractions were prepared again by performing osmotic shock. Periplasmic fractions containing His-tagged nanobodies were tested for binding to mpIgR. In this assay, bound nanobody was detected with an anti-VHH antibody. Each clone was also tested for non-specific binding to BSA in parallel. The ELISA values obtained on BSA were subtracted from the ELISA values obtained on the respective pIgR antigen.

T1 sequence (P01833 19-638 limits assumed): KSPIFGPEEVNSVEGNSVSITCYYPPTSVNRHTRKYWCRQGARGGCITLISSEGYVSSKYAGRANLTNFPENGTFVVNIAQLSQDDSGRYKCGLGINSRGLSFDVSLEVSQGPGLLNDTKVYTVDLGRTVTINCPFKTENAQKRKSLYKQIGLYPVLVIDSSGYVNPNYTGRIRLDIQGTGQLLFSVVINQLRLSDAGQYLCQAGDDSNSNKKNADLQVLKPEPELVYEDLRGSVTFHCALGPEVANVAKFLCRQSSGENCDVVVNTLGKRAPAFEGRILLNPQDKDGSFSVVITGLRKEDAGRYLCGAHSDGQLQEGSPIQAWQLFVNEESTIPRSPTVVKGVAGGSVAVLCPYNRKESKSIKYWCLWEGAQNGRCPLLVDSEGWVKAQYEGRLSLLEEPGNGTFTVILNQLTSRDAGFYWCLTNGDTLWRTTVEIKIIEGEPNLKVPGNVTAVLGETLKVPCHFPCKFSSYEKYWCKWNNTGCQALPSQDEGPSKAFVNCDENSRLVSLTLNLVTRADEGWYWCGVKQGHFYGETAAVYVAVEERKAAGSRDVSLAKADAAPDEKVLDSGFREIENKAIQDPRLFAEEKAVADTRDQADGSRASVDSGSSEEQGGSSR

Row | Binder | ELISA (OD)
1 | 01A01R3 His-tagged VHH (VHH) VHH: EVQLVESGGGLVQAGGSLRLSCAASGSGRTFTSYTMGWFRQAPGKEREFVSALTWADDSTYYKYYADSMKGRLTISRDNAKNTVYLQMNSLKPEDTAVYYCVATGRGLTYDPRDRRKYDYWGQGTQVTVSS | 0.91
2 | 01C01R2L His-tagged VHH (VHH) VHH: QVQLVESGGGLVQAGGSLRLSCAASGRTLRSYIVGWFRQAPGKEREFVAAVTWSDGRRVTADPVKGRFTISRDNAKNTVYLQMDSLKPEDAAVYYCAVSRGGAYEYSRAYEYWGQGTLVTVSS | 1.97
3 | 02H11R3 His-tagged VHH (VHH) VHH: EVQLVESGGGSVQAGGSLRLSCAASGRTFSNYAMGWFRQAPGKEREFVAGISRSGGSTYSADSVKGRFTISRDNAKNTVYLQMNSLKPEDTAVYYCAADGLDYALGFRGDYWGQGTQVTVSS | 1.97
4 | 02G04R3 His-tagged VHH (VHH) VHH: QVQLVESGGGLVQAGGSLRLSCAANGRAANAYAVGWFRQAPGKEREFVAHIRWNGGRTAYADSVKGRFTISRDDAKNTVYLQMDSLKPEDTAVYYCAEDTNPDAFGDLRLPSEYEYWGQGTQVTVSS | 0.93
5 | 01C01R2LS His-tagged VHH (VHH) VHH: QVQLVESGGGLQQAGGSLRLSCAASGRTVTVMTVGWFRQAPGKEREFVAAITMYGERTYYADSVKGRFTISRDNAKNTVDLQMNSLKPEDAAVYYCAARTYVSGIYDRFDDYNYWGQGTQVTVSS | 0.82
6 | 03A08R3 His-tagged VHH (VHH) VHH: QVQLVESGGGLVQAGGSLRLSCAASGRTSSIYGMGWFRQAPGKEREFVAAISWSAGRTYHADSVKGRFTISRDNAKNMVYLQMDKMKPGDTAVYYCAARRAPELLSDYTQKPEEIGTYHYWGQGTLVTVSS | 2.1
7 | 01E11R2 His-tagged VHH (VHH) VHH: QVQLVESGGGLVQTGGSLRLSCAASGLTFSSYTMGWFRQAPGKEREFVAAISWGGASTWYADSVKGRFTISRDNAKTMVYLQMNGLKPEDTAVYYCAKGRNNGYATAVRAYDYWGQGTLVTVSS | 2.01
8 | 02G06R3 His-tagged VHH (VHH) VHH: EVQLVESGGGLVQAGGSLRLSCAASGRTFDSYAMGWFRQAPGKEREFVAAISWTGGSTDYADSVKGRFTISRDNAKNTVYLQMDSLKPEDTAVYYCAAEVVGRDVTTMYRVSGLEYEYDYWGQGTQVTVSS | 1.8
9 | 01C02R3LS His-tagged VHH (VHH) VHH: QVQLVESGGGLVQAGDSLRLSCAASGRTRTTYGMGWFRQAPGKEREFVTTITWSGSTNYKYYADSVKGRFTISRDNAKNTVYLQMNSLKPDDTAVYYCAASTVLTDPRVPTEYDYWGQGTQVTVSS | 2.01
10 | 01H06R3L His-tagged VHH (VHH) VHH: EVQLVESGGGLVQAGDSLRLSCAASGRTRTTYGMGWFRQAPGKEREFVTTITWSGPTNYKYYADSVKGRFTISRDNAKNTAYLQMNSLKPDDTAVYYCAASTVLTDPRVPTEYDYWGQGTQVTVSS | 1.87
11 | 01C08R2L His-tagged VHH (VHH) VHH: EVQLVESGGGLVQAGDSLRLSCAASGRTFTTYGVGWFRQAPGKEREFVTTITWSGSTNYKYYADSVKGRFTISRDNAKNTVYLQMNSLKPDDTAVYYCAASTVLTDPRVPTEYDYWGQGTQVTVSS | 1.98
12 | 01B10R3L His-tagged VHH (VHH) VHH: QVQLVESGGGLVQAGDSLRLSCAASGRTFTTYVMGWFRQPPGKEREFVATISWSGSTTYKYYADSVKGRFTISRDNAKNTVYLQMNSLKPEDTAVYYCAASTVVADPRAPNEYDYWGQGTQVTVSS | 2.04
13 | 01A09R2 His-tagged VHH (VHH) VHH: EVQLVESGGGLVQAGGSLRLSCAASGRTFSSNPMGWFRQAPGKEREFVAAISWSGGGTYYADSVKGRFTISRDNAKNTVTLQMNSLKPEDTAVYYCASRDYSDPISLWVEDREYDYWGQGTQVTVSS | 1.86
14 | 02B03R3 His-tagged VHH (VHH) VHH: EVQLVESGGGLVQSGGQLRLSCAASGSIASIRDMAWYRQAPGKQRELVAIFARGGTTHYADSVKGRFTISRDNAKNTVYLQMNSLEPEDTAAYYCNAEVATMFQPGFRDYWGRGTLVTVSS | 0.44
15 | 01C03R3L His-tagged VHH (VHH) VHH: QVQLVESGGGLVQPGGRLRLSCAASGSIFSIRDMGWYRQAPGKQRELVAIFARGGSTHYADSVKGRFTISRDNAKNTVYLQMNSLEPEDTAAYYCNAEVATMIQPGFRDYWGQGTLVTVSS | 1.77
16 | 02H04R3 His-tagged VHH (VHH) VHH: EVQLVESGGGLVQPGGRLRLSCAASGSIFSIRDMGWYRQAPGKQRELVAIFARGGSTHYADSVKGRFTISRDNAKNTVYLQMNSLEPEDTAAYYCNAEVATMIQPGFRDYWGQGTQVTVSS | 2.4

Second part, the binder after the results:

Row | ELISA (OD) | Binder
17 | 1.62 | 01G02R2LS His-tagged VHH (VHH) VHH: QVQLVESGGGLVQAGDSLALSCAGSGDTFSNYAMGWFRQAPGKEREFVADISWYGANIGYADSVKGRFTISRDNAKNMVTLRMNSLKPEDTAVYYCAADRNHWPVKGDYWGQGTQVTVSS
18 | 2 | 02G03R3 His-tagged VHH (VHH) VHH: EVQLVESGGGLVQAGGSLRLSCAASGMPDNIFSIKTMGWYRQAPGKERELVAAITSGGSTNYGDSVKDRFTISRDRIENTVNLEMNNLKPEDTAVYTCHADLTYIRFQDMEYWGKGTQVTVSS
19 | 1.54 | 02E01R3LS His-tagged VHH (VHH) VHH: QVQLVESGGGLVQAGDSLRLSCAASGRTFTTYGMGWFRQAPGKEREFVTTITWSGSTNYKYYADSVKGRFTISRDNAKNTVYLQMNSLKPDDTAVYYCAASTVLRDPRVPTEYDYWGQGTQVTVSS
20 | 2.41 | 01G08R3LS His-tagged VHH (VHH) VHH: QVQLVESGGGLVQAGDSLRLSCAASGRTFTTYGMGWFRQGPGKEREFVATITWSGSTNYKYYTDSVKGRFTISRDNAKNTVYLQMNSLKPEDTAVYYCAASTVLTDPRRLNEYDYWGQGTQVTVSS
21 | 0.43 | 01H11R2LS His-tagged VHH (VHH) VHH: EVQLVESGGGLVQAGDSLRLSCAASGRTLTTYGMGWFRQAPGKEREFVATIKWSGSTNYKYYADSVKGRFTISRDNAKNTVYLQMNSLKPEDTAVYYCAAGTVLGDPRVLNEYDYWGQGTLVTVSS
22 | 2.16 | 02D06R3 His-tagged VHH (VHH) VHH: QVQLVESGGGLVQPGGRLRLSCAASGSIFSIRDMAWYRQAPGKQREWVAIAARGGSTHYADSVKGRFTISRDNAKNTVYLQMNTLEPEDTAAYYCNAEVATMIQPGFRDYWGQGTQVTVSS
23 | 2.2 | 01F01R2 His-tagged VHH (VHH) VHH: QVQLVESGGGLVQAGGSLRLSCAASGRTFSSNPMGWFRQAPGKEREFVAAISWSGGGTYYADSVKGRFTISRDNAKNTVTLQMNSLKPEDTAVYYCASRDYSDPISLWVEDREYDYWGQGTQVTVSS
24 | 2.03 | 01A03R3L His-tagged VHH (VHH) VHH: EVQLVESGGGLVQPGGQLRLSCAASGSIASVRDMAWYRQAPGKQRGLVAIFARGGTTHYADSVKGRFTISRDNAKNTVYLQMNSLEPEDTAAYYCNAEVATMFQPGFRDYWGRGTLVTVSS
